Assay: soluble on expression in E. coli; label from the status in PepcDB or PDB records

Soluble on expression in E. coli, soluble:
MVPSEGTWVYVVNLRRVYWGRRTRRAIRAVRMVREFVRRHTKADEVVIDNELNNYIWSRSREKPPARVKIIVSIREEEPEEGGERIRKAVVRLAGRKLRPGRYKG
GPLGSMPYSDAKAMLDEVAKIRELGVQRVTRIENLENAKKLWDNANSMLEKGNISGYLKAANELHKFMKEKNLKEDDLRPELSDKTISPKGYAILQSLWGAASDYSRAAATLTESTVEPGLVSAVNKMSAFFMDCKLSPNERATPDPDFKVGKSKILVGIMQFIKDVADPTSKIWMHNTKALMNHKIAAIQKLERSNNVNDETLESVLSSKGENLSEYLSYKYATKDEGREHRYTASTENFKNVKEKYQQMRGDALKTEILADFKDKLAEATDEQSLKQIVAELKSKDEYRILAKGQGLTTQLLGLKTSSVSSFEKMVEETRESIKSQERQTIKIK
MASTARSLRYALAILTTSLVTPSVWAHAHLTHQYPAANAQVTAAPQAITLNFSEGVETGFSGAKITGPKNENIKTLPAKRNEQDQKQLIVPLADSLKPGTYTVDWHVVSVDGHKTKGHYTFSVK
MIKAIIFDVDETLVYYEGYSLREWYEKVGLPAMKELGVIVDWEIFRKMARGELPRSYVEKFQINHVKFWKALDEANRKYREELLKEGKVHTFKDVEALKEIKNLGIKLAAVSNASQDNTELVLRAFDLLKYFDVVYGKDYTYLDGVKPNPYLINKALKALNVEPKEAILVGDSELDIIAGKRAKLRVVQIVREKRVEGADVYINSLWELVDKLKTGEL
MGSDKIHHHHHHMANEATQELFQVLDNTAIILQNELEISYLEAVYETGENLFQKEVLQKEELSSEKQLKLQASYESIELENFSNEEIRKGLQLALLKGMKHGIQVNHQMTPDSIGFIVAYLLEKVIQKKKNVSILDPACGTANLLTTVINQLELKGDVDVHASGVDVDDLLISLALVGADLQRQKMTLLHQDGLANLLVDPVDVVISDLPVGYYPDDENAKTFELCREEGHSFAHFLFIEQGMRYTKPGGYLFFLVPDAMFGTSDFAKVDKFIKKNGHIEGIIKLPETLFKSEQARKSILILEKADVDVKPPKEVLLANLSSLTDPSVTAPILAEIENWFKSKQ
MASIINKQIISPTGRNMEIINYEILKKYPLCDRCFGRLYAKLLHTTNTERGRALKLYKALELEAKIKKAKEKGINYEEELELLKALAKSGVDEIRLEDIEIEKENCPWCRGIFNKQKMEKLLNKAIELLKEYDFDTFLIGTHIPEEIKDLEKEIETEFMESIKQEFGREFGKMLAVRLDKAPDKEYPDIVVHINPYTEEIYLQINPLFIKGRYRKLVRGIPQTRWPCRKCRGKGCELCNYTGKKYPISVEEIIAKPFLEATKGVDAKFHGAGREDIDVRMLGDGRPFVLEIKEPKIRKIDLNKIAEEINKDGRVEVLNLEFGVRKDKVIFKNTPHRKTYRALVECSDKITDEELKLLEKELENRTIYQKTPKRVLHRRADLERIRKVYKVKTSKVDDNHFEMIIYCDGGLYIKELISGDDGRTNPSVSSILNKNCICKELDVLKIHDNNLLEKG
MKKILIVDDEKPISDIIKFNMTKEGYEVVTAFNGREALEQFEAEQPDIIILDLMLPEIDGLEVAKTIRKTSSVPILMLSAKDSEFDKVIGLELGADDYVTKPFSNRELQARVKALLRRSQ
SEAWEYFHLAPARAGHHPNQYATCRLCGRQVSRGPGVNVGTTALWKHLKSMHREELEKSGHGQ
MADLIARLREDGIQKRVIQEGRGELPDFQDGTKATFHFRTLHSDNEGSVIDDSRTRGKPMELIVGKKFKLPVWETIVCTMREGEIAQFLCDIKHVVLYPLVAKSLRNIAEGKDPLEGQRHCCGIAQMHEHSSLGHADLDALQQNPQPLIFHIEMLKVESPGTYQQDPWAMTDEEKAKAVPVIHQEGNRLYREGQVKEAAAKYYDAIACLKNLQMKEQPGSPDWIQLDLQITPLLLNYCQCKLVAQEYYEVLDHCSSILNKYDDNVKAYFKRGKAHAAVWNAQEAQADFAKVLELDPALAPVVSRELRALETRIRQKDEEDKARFRGIFSH

Soluble on expression in E. coli, not soluble:
MKYQVLLYYKYTTIEDPEAFAKEHLAFCKSLNLKGRILVATEGINGTLSGTVEETEKYMEAMQADERFKDTFFKIDPAEEMAFRKMFVRPRSELVALNLEEDVDPLETTGKYLEPAEFKEALLDEDTVVIDARNDYEYDLGHFRGAVRPDIRSFRELPQWIRENKEKFMDKKIVTYCTGGIRCEKFSGWLLKEGFEDVAQLHGGIANYGKNPETRGELWDGKMYVFDDRISVEINHVDKKVIGKDWFDGTPCERYINCANPECNRQILTSEENEHKHLGGCSLECSQHPANRYVKKHNLTEAEVAERLALLEAVEV
MVGGGLSTDIAGGRTMTCEFRNSRCISDDDDLIRMKEDDTETQKSEFHRKASGFFLRGSGYCRSIFRVSENLEKDWQACNRRAYMSGLVDYQSMARKAYEKLQELGISRHVTPLFAENVTVPIPGVVFLDCVVNDMTLISRIAGLVARAAFHIKNESPQHGLIEVGAPYNLVDNISYPGLIRFCGKVRNNLGNNYNIQCDIFQMCQFGARSLGSVHNTITVTVAAAAPIPNLVPRGILAPPPPPPPLPLPPVRRRAPKVLNLQKFIDAYQPVQSTGYPIGTPAAAAAVEKESAAPVVPENAEKEVAPKIAQKLELCGTPCKIKAEPEDEDIIILKHIAPNTDGGVKRVGSRNKIGKRSQKLKTRRL
MKKAVVVFSGGQDSTTCLVQALKEFDEVHAITFDYGQRHKLEIEVAQQLAKQLGVTAHKVMDVSLLNELAISSLTRDDIPVSHELQANGLPNSFVPGRNILFLTLAGIYAYQIGATTVITGVCETDFSGYPDCRDEFVQAMNQALAKGMDLPLMIRTPLMWLNKAETWALADQLGALDLVRHQTLTCYNGLIGDGCGECPACGLRQAGLKAYLDNRDLIMSALKSKQSAAH
MGSDKIHHHHHHKITQDDLKQLDGNLTPLGAERAANKDGTIPAWTGKWLGAPTGVAYKAGERYQDPYADEKPLYVITAQNMAQYDKQLTDGLKALFKKYPETFKMPIYATHRDFRYDDGTYKAIRTYAPQIEMLGEGNGVKNSPPTLPYPIPKTGLELLWNLRFASAIESERAVYDQAVVYADGKVAWGKVKYEIWSPKDGQHFDAKAPMNARAFYRMYTELPLRDRGSIITGYTVYDSPEPDSNRAWSYNPGTRRVRQAPEYGYDQPFGPGGFRTVDDDHFFNGSPERYDWKIVGKRELYVPYNNYRMSSPSIKYQDLLTKGHADPSNMRYELHRVWVLEATLKQGFRHQYAKRIIYIDEDSWYGVLADNYDSRGQLWRTNIQANVYAYDAKRFYPTAVFFHDLISGAYLADRLTNEGQPPRLNSEPKYVEAYFSPDAARGAGN
MIPLFNFAIKQFMNQRMKNIRGFMEHPIETQQRVLKNLLQQAALTEWGKTHGYKDIQSNEQFAQQVPVSTYETFYPWIERCLKGEQQILWQSDIDWFSKSSGTTNAKSKFIPVSKESLKDCHYKGGMDLLTLYFDNAPESKLFQGKSLAVGGSCSPNPHRDNSKIGDISAVIMANLPTWAQYARTPSIQTALMNEWEAKIDKLAEECSKENVTNLSGVPTWAVLLLEYMLEKSGKENMLEIWPHFECFFHGAVSFHPYKTAFQKFFPSDKVRYMETYNASEGFFGVQDDLSRDDLLLYLDHGIYYEFIPIDEIDAEFPKTISLEQVQLNEAYALVISTNSGLWRYNVGDVVRFTSITPYRIKITGRTKHYINVFGEELMVENAEMAVSKACEATNAVLANFTAGPIYFNNENKGGHEWIIEFETAPGDKDRFTQLLDQFLKELNSDYEAKRYKDMALLLPTIHFVPEGTFYKWLKLKGKLGGQHKVPRLSNNREYLEDILTKCL
MGSDKIHHHHHHMHMAAKRGRTAQRLELGLQLRQLRENCDGGDRGVGLTRKQAVQGLRISEASLQRIETGSLNFRFVGDLRKLLTKYGVTDEDVVDSLISLNRESNQQDWLTQYRGLMPSGMPGFVGLEPEAHAMKAYHPTLVYGLLQTERYARAVHEVQKPIEEYTTEFIRSSVELRMKRQEVLTRESPVKLHVILGEAALRYPIGGAEVMREQCARIEELSGWDHITVQVLPFRPSYRSINDFAILDFGNNLPPRVQADSAWGSVSTSDKPREVDRFSRRFDTMTASALPPEDTPEFLHRLEREL
MSLDLHNDLKSYLSELNTYSHVDKNEIYHSQRAGYMTGGGISIRNGASHTALAQVSLPKFDAGCGGIDIFTGGISFISHDQLIAALKNIASSAQGYAFMLGIETVSPLIASTMKQMETWANAINSLGINSCEVATGLVGSVWPARTAAKQQICRSAKNGGFASSFINARHQCADEGDYAKTMQSMAKDPLYDGMLLEEYNLTWKAVQKHPFLAKKENRKMAEEIMSLTGTLIIRRDKSLVVEPWPSRIYDDSFLPILLEGGTTRVYQCTGGNAKQNCLALEMKELTIPAEQAWKGRIKQALATIQQKILADTPLASEEIDLLSKSRLPLFKIVNVLTAYKREVSPISLYEVAEIVGNEMLIQYLREIIGTVRLAAIQLERGQMYDFDSQKFIEELERVEKVVSRYEERHYQRLEAENQLMLKIETLEQKIASQIILFEGHHHHHH
MNRIKEVLEEKGIKQTWLAEKLGKSFSIVNSYVCNRRQPSLDILFEIAKILEVDVRVLIGTKENRQKSK
MGSDKIHHHHHHMKNALIQSGPDTTGRRPSRKVLIYGLNYAPELTGIGKYSAEMAESLADVGYEVRVICAPPYYPEWRIGAGHSAWRYRTEQRAAVRIQRAPVWVPSRPSGLKRLLHLASFAVSSLPTVFAQLFWRPDIVIAVAPSLMNIPAALMFGKMARARTWLHIQDYEVDAAFELGMLKGKRLRQFALGVESWLMRRFDVVSTISARMIEHGRNKGVDSPRLFALPNWVDVNVIFPLDRPSLYRTALNIPDEAIVVLYSGNMGAKQGIEVLAQAAASLAHRSDIHFVLCGDGPYKVNLVEQCGHLANCTFLSLQPFDKLNDLLNVADIHVLPQRADAADLVMPSKLTGMLASGRSIIAMARAGTELFDVVSPRGVTVPPEDVQALVAAIENLADDVDQRTRLGAAARAYAETELSRRAVIERLDGRFQMLCDRVRGRSVFT
GPGSMPVPSYWRMACRSYQFTICATSYLLRWRAPAVTQGSGALVKLPHLVRGARLQRGLLVTDAMIMKLGLVDDFIDEMKKQGTELAIYKDVLPNPTIDMVEEASVLYRKNRCDYLVAVGGGSVMDCAKLIGVRQARPRTPLPYMRGLLRVLWPLPPLIAVPTTAGTGSECTIAAVVSDPAKKDKLVVMDPFLTPSHCVLDPALTLTLPKFVTATAGMDALTHVVEAYTNVFHYRTVDKAALRAMELLAKYLPCAYKDGSNLEAREKMLHASYLAGLSFTRAGVGNVHAAAHAVGGLYNAPHGYVNAVILPHVLDMYGSAAHKSLARLAEAANIVGANDAEKAVNFISWVREMNAQMQIPTTLGAGDSRWAPQEEDIPFLVKHAVTEANPFYAVPVIFGEEEMTELFRRVM
MARGIKLVIFDVDGVLVEVKSSWGYIHRRLGVEEEAMKVKEMFERGSIDYIEWMRLDTELWIRASGGRLHRSRLMEIVGEIPVRKEAFEAVRMLRRMGLRIGLVSSGIDLLVRRVAAEIGADAWASNRLLFDKNGFLQPGGSPLVGVDKRGAVTRMAYELGASLEEVAYVGDSRWDASAMSIVGLPIAYNDGGELDGVARARVDSLLDVPRVVAEWGRARAR

Reference: the DeepSol protein solubility set
